Results reported in patent US20090304651A1 (published 2009).
Like-named read-outs stand apart in the source and are kept apart here.

Legend:
[1] = biological target: T1, recombinant human IGF-II (Insulin-like Growth Factor II) (human, UniProt P01344 25-91, biotinylated (Biotinyl-IGF-II, GroPep) where immobilised in SPR, site not stated; not biotinylated in ITC and as SPR analyte); experiment: SPR, IGF-II immobilised, steady state
T1 construct: also called IGF2; IGF-2
Protocol: (§1) Duplicate analyte injections were performed at concentrations of 4096, 2048, 1024, 512, 256, 128, 64, 32, 16 and 8 nM.
(§2) Kinetic analysis by Surface Plasmon Resonance (SPR) was conducted on a BIAcore 3000 biosensor (BIAcore, Uppsala, Sweden) at 25° C. in HBS-EP (10 mM HEPES, pH 7.4, 150 mM NaCl, 3 mM EDTA, 0.005% surfactant P20) at a flow rate of 40 μl/min. […] Kinetic experiments consisted of a two minute injection of analyte followed by a 100 s dissociation phase in running buffer, after which the binding surface was regenerated with a 2 minute injection of 2 M MgCl₂. A blank flow cell was used for in-line reference subtraction of changes due to differences in refractive index of running buffer versus sample and a buffer-only injection was used to subtract instrument noise and drift. Injections were performed in duplicate for each concentration and in a randomised order. Kinetic parameters were determined by global fitting of sensorgrams to a two-state (conformational change) binding model using BIAevaluation software version 4.0.1. In all cases the minor component made an insignificant contribution to the overall affinity and as such only the kinetic parameters of the major binding component were used. For each interaction the dissociation affinity constant (KD) was also calculated by fitting of the response of each concentration at equilibrium to a steady-state affinity model using BIAevaluation.

[2] = biological target: T1, recombinant human IGF-II (Insulin-like …); experiment: ITC, IGF-II titrated into domain 11
Protocol: Calorimetric measurements were performed using a VP-ITC microcalorimeter (MicroCal). All solutions were thoroughly degassed before use by stirring under vacuum. […] The sample cell contained either wild type domain 11 (7 uM) or the E1544A mutant (8 μM), also in HBS-E buffer. To correct for the heat effects of dilution and mixing, reaction heats obtained from a control experiment, in which IGF2 was injected into HBS-E, were subtracted. Calorimetric data were analysed using MicroCal ORIGIN software (version 5.0) supplied with the instrument. Thermodynamic parameters were derived by fitting the binding isotherms to a single-site binding model. Values for dissociation affinity constants (KD) were determined from duplicate experiments.
In order to validate the SPR sensorgram data, ITC was used to assess the binding affinity between domain 11 and IGF-II. The affinity of the E1544A mutant was also assessed by ITC in order to confirm whether use of a second technique agreed as to the apparent increase in affinity (FIG. 6 and Table 6). Titrations were performed using 17×15 μl injections of 40 μM IGF-II (after an initial 7.51 injection) into the reaction cell containing wild type domain 11 or the E1544A mutant. […] The two fold differences may be simply accounted for by the fidelity of both techniques.

[3] = biological target: T1, recombinant human IGF-II (Insulin-like …); experiment: SPR, IGF-II immobilised, steady state; remark: listed apart in the source
Summary of the method: (§3)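 Biotinylated IGF-II (~50 RU) on a streptavidin Sensor Chip SA served as the surface for duplicate injections of His-tag-purified domain 11 proteins made by secretion in Pichia pastoris. On a BIAcore 3000 at 25° C, 2 min injections in HBS-EP flowed at 40 μl/min over a range of 4096–8 nM, or 16384–32 nM for three constructs. After subtracting the blank flow cell and buffer injections, equilibrium responses were fitted in BIAevaluation to a steady-state affinity model to give Kd, with relative affinity referenced to the unaltered domain 11 protein.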

[4] = biological target: T1, recombinant human IGF-II (Insulin-like …); experiment: SPR, IGF-II immobilised, kinetic fit
Protocol: as §1, §2

[5] = biological target: T1, recombinant human IGF-II (Insulin-like …); experiment: SPR, IGF-II immobilised, kinetic fit; remark: listed apart in the source
Summary of the method: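 Biotinylated IGF-II (~50 RU) was captured on a streptavidin Sensor Chip SA, and domain 11 proteins, secreted from Pichia pastoris and purified by His-tag, were injected over it in duplicate and in randomised order. A BIAcore 3000 was run at 25° C in HBS-EP at 40 μl/min, with 2 min injections, 100 s dissociation and regeneration with 2 M MgCl₂. Analyte concentrations spanned 4096–8 nM, or 16384–32 nM for three constructs. After subtraction of blank flow cell and buffer injection signals, association rates, dissociation rates and Kd were obtained by global fitting of sensorgrams in BIAevaluation 4.0.1.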

[6] = biological target: T1, recombinant human IGF-II (Insulin-like …); experiment: SPR (Biacore)
[7] = biological target: T1, recombinant human IGF-II (Insulin-like …); experiment: SPR, steady-state KD relative to wild type
Summary of the method: as §3

[8] = biological target: T1, recombinant human IGF-II (Insulin-like …); experiment: SPR, steady-state KD relative to wild type; remark: listed apart in the source
Protocol: as §1, §2

T1 sequence (P01344 25-91 limits assumed): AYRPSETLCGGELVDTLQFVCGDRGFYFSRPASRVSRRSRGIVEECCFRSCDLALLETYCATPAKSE

Binder | Kd [1] | Kd [2] | Kd [3] | Kd [4] | koff [4] | kon [4] | Kd [5] | koff [5] | kon [5] | Kd [6] | Relative Affinity [7] | Relative Affinity [8]
wild type IGF2R domain 11 (amino acids 1511-1650) with C-terminal His6 tag, from Pichia pastoris (receptor, also called WT; wild type domain 11) NEHDDCQVTNPSTGHLFDLSSLSGRAGFTAAYSEKGLVYMSICGENENCPPGVGACFGQTRISVGKANKRLRYVDQVLQLVYKDGSPCPSKSGLSYKSVISFVCRPEAGPTNRPMLISLDKQTCTLFFSWHTPLACEQATHHHHHH | 103 nM | 150 nM | 103 nM | 102 nM | 0.053 s⁻¹ | 525000 M⁻¹ s⁻¹ | 119 nM | 0.0787 s⁻¹ | 662000 M⁻¹ s⁻¹ | 103 nM | 1 fold (wild type = 1.00) | 1 fold (wild type = 1.00)
IGF2R domain 11 E1544A (amino acids 1511-1650, C-terminal His6 tag, from Pichia pastoris) (receptor) NEHDDCQVTNPSTGHLFDLSSLSGRAGFTAAYSAKGLVYMSICGENENCPPGVGACFGQTRISVGKANKRLRYVDQVLQLVYKDGSPCPSKSGLSYKSVISFVCRPEAGPTNRPMLISLDKQTCTLFFSWHTPLACEQATHHHHHH | 37 nM | 81.4 nM | 37 nM | 35.9 nM | 0.033 s⁻¹ | 934000 M⁻¹ s⁻¹ | 45.5 nM | 0.0558 s⁻¹ | 1.23e+06 M⁻¹ s⁻¹ | 37 nM | 2.79 fold (wild type = 1.00) | 2.79 fold (wild type = 1.00)
IGF2R domain 11 E1544K (amino acids 1511-1650, C-terminal His6 tag, from Pichia pastoris) (receptor, also called enhanced mutant) NEHDDCQVTNPSTGHLFDLSSLSGRAGFTAAYSKKGLVYMSICGENENCPPGVGACFGQTRISVGKANKRLRYVDQVLQLVYKDGSPCPSKSGLSYKSVISFVCRPEAGPTNRPMLISLDKQTCTLFFSWHTPLACEQATHHHHHH | 16.9 nM | 26.4 nM | 16.9 nM | 15.2 nM | 0.023 s⁻¹ | 1.52e+06 M⁻¹ s⁻¹ | 20.5 nM | 0.0406 s⁻¹ | 2.02e+06 M⁻¹ s⁻¹ | 16.9 nM | 6.12 fold (wild type = 1.00) | 6.12 fold (wild type = 1.00)
